Measured values published in article PMC4072508, “Genome-Wide Prediction and Validation of Peptides That Bind Human Prosurvival Bcl-2 Proteins” (PLoS Computational Biology, 2014).

Assays:
Test in all cases: peptide SPOT array, c-Myc-tagged receptor at 1 uM or 100 nM, anti-c-Myc-Cy3
Bcl-xL, Q07817 = target: Bcl-xL, Q07817
Mcl-1, Q07820 = target: T1, Mcl-1, Q07820
T1 chain: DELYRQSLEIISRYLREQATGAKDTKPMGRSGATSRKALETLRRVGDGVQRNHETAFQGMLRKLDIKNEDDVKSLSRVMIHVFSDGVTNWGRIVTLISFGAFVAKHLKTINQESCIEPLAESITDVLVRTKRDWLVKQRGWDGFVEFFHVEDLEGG

Bfl-1, Q16548 = target: T2, Bfl-1, Q16548
T2 chain: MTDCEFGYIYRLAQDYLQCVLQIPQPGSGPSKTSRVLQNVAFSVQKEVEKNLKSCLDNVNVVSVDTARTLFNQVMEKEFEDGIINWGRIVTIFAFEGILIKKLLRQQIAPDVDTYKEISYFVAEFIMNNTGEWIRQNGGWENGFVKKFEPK

Sequence of Bcl-xL, Q07817 (Q07817 1-209): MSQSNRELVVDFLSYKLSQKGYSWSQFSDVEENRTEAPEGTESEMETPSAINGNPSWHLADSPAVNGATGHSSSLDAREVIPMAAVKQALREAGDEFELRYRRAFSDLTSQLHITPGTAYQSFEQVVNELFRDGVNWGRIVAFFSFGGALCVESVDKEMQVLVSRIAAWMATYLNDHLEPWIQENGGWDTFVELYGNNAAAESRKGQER

B1: SLC19A1 (peptide)
chain: ACGDSVLARMLRELLDSLRRPQLRLW
- SPOT signal as a fraction of Bim BH3's signal on the same receptor and array (Bcl-xL, Q07817): 0.71
- SPOT signal as a fraction of Bim BH3's signal on the same receptor and array (Mcl-1, Q07820): 0.28
- SPOT signal as a fraction of Bim BH3's signal on the same receptor and array (Bfl-1, Q16548): 0.33

B2: XXXX (peptide)
chain: GTAVAYRGAHLRGRLRAVYNTFRAAP
- SPOT signal as a fraction of Bim BH3's signal on the same receptor and array (Bcl-xL, Q07817): 2.49
- SPOT signal as a fraction of Bim BH3's signal on the same receptor and array (Mcl-1, Q07820): 1.44
- SPOT signal as a fraction of Bim BH3's signal on the same receptor and array (Bfl-1, Q16548): 1.48

B3: TMEM184C (peptide)
chain: SDIRDDISEQVRHVLRTVRGHPRKKL
- SPOT signal as a fraction of Bim BH3's signal on the same receptor and array (Bcl-xL, Q07817): 0.88
- SPOT signal as a fraction of Bim BH3's signal on the same receptor and array (Mcl-1, Q07820): 0.31
- SPOT signal as a fraction of Bim BH3's signal on the same receptor and array (Bfl-1, Q16548): 0.34

B4: CTSL2 (peptide)
chain: SQGKHGFTMAMNAFLDMTNEEFRQMM
- SPOT signal as a fraction of Bim BH3's signal on the same receptor and array (Bcl-xL, Q07817): 0.07
- SPOT signal as a fraction of Bim BH3's signal on the same receptor and array (Mcl-1, Q07820): 0.11
- SPOT signal as a fraction of Bim BH3's signal on the same receptor and array (Bfl-1, Q16548): 0.06

B5: NBEAL2 (peptide)
chain: AELRLFLAQRLRWLLDSCPASRATCV
- SPOT signal as a fraction of Bim BH3's signal on the same receptor and array (Bcl-xL, Q07817): 0.52
- SPOT signal as a fraction of Bim BH3's signal on the same receptor and array (Mcl-1, Q07820): 0.72
- SPOT signal as a fraction of Bim BH3's signal on the same receptor and array (Bfl-1, Q16548): 0.53

B6: TAP1 (peptide)
chain: MSILTIASAVDEFVGDGIYNNTMGHV
- SPOT signal as a fraction of Bim BH3's signal on the same receptor and array (Bcl-xL, Q07817): 0.06
- SPOT signal as a fraction of Bim BH3's signal on the same receptor and array (Mcl-1, Q07820): 0.04
- SPOT signal as a fraction of Bim BH3's signal on the same receptor and array (Bfl-1, Q16548): 0.03

B7: FUT8 (peptide)
chain: KKLKNLEGNEDQRHADEFLLDLGHHE
- SPOT signal as a fraction of Bim BH3's signal on the same receptor and array (Bcl-xL, Q07817): 0.07
- SPOT signal as a fraction of Bim BH3's signal on the same receptor and array (Mcl-1, Q07820): 0.04
- SPOT signal as a fraction of Bim BH3's signal on the same receptor and array (Bfl-1, Q16548): 0.04

B8: DZIP3 (peptide)
chain: NGGLLEFHKSLQEIGDKNDHWFDIDP
- SPOT signal as a fraction of Bim BH3's signal on the same receptor and array (Bcl-xL, Q07817): 0.11
- SPOT signal as a fraction of Bim BH3's signal on the same receptor and array (Mcl-1, Q07820): 0.04
- SPOT signal as a fraction of Bim BH3's signal on the same receptor and array (Bfl-1, Q16548): 0.04

B9: IQGAP2 (peptide)
chain: ISSLDLLPYGLRYILKVLKNSIHEKF
- SPOT signal as a fraction of Bim BH3's signal on the same receptor and array (Bcl-xL, Q07817): 0.86
- SPOT signal as a fraction of Bim BH3's signal on the same receptor and array (Mcl-1, Q07820): 0.66
- SPOT signal as a fraction of Bim BH3's signal on the same receptor and array (Bfl-1, Q16548): 0.6

B10: BCL2L11 (peptide)
chain: MRPEIWIAQELRRILDEFNAYYARRV
- SPOT signal as a fraction of Bim BH3's signal on the same receptor and array (Bcl-xL, Q07817): 0.1
- SPOT signal as a fraction of Bim BH3's signal on the same receptor and array (Mcl-1, Q07820): 0.05
- SPOT signal as a fraction of Bim BH3's signal on the same receptor and array (Bfl-1, Q16548): 0.05

B11: MKI67 (peptide)
chain: SGLPGLSSVDINNFLDSINESEGIPL
- SPOT signal as a fraction of Bim BH3's signal on the same receptor and array (Bcl-xL, Q07817): 0.11
- SPOT signal as a fraction of Bim BH3's signal on the same receptor and array (Mcl-1, Q07820): 0.04
- SPOT signal as a fraction of Bim BH3's signal on the same receptor and array (Bfl-1, Q16548): 0.04

B12: DSN1 (peptide)
chain: RAKASSLSEELKHFLDGLETDGTLQK
- SPOT signal as a fraction of Bim BH3's signal on the same receptor and array (Bcl-xL, Q07817): 0.26
- SPOT signal as a fraction of Bim BH3's signal on the same receptor and array (Mcl-1, Q07820): 0.18
- SPOT signal as a fraction of Bim BH3's signal on the same receptor and array (Bfl-1, Q16548): 0.17

B13: CCDC57 (peptide)
chain: QAGPVSSGLADRKLGDRVQLLNLLVT
- SPOT signal as a fraction of Bim BH3's signal on the same receptor and array (Bcl-xL, Q07817): 0.1
- SPOT signal as a fraction of Bim BH3's signal on the same receptor and array (Mcl-1, Q07820): 0.07
- SPOT signal as a fraction of Bim BH3's signal on the same receptor and array (Bfl-1, Q16548): 0.07

B14: ITGA7 (peptide)
chain: GSPDSMFGISDAVLGDLNQDGFPDIA
- SPOT signal as a fraction of Bim BH3's signal on the same receptor and array (Bcl-xL, Q07817): 0.07
- SPOT signal as a fraction of Bim BH3's signal on the same receptor and array (Mcl-1, Q07820): 0.03
- SPOT signal as a fraction of Bim BH3's signal on the same receptor and array (Bfl-1, Q16548): 0.08

B15: SLC30A7 (peptide)
chain: ELLYGIWSNCDGLISDSFHMFFDSTA
- SPOT signal as a fraction of Bim BH3's signal on the same receptor and array (Bcl-xL, Q07817): 0.06
- SPOT signal as a fraction of Bim BH3's signal on the same receptor and array (Mcl-1, Q07820): 0.05
- SPOT signal as a fraction of Bim BH3's signal on the same receptor and array (Bfl-1, Q16548): 0.05

B16: FOXJ3 (peptide)
chain: PKKKMTLSEIYQWICDNFPYYREAGS
- SPOT signal as a fraction of Bim BH3's signal on the same receptor and array (Bcl-xL, Q07817): 0.33
- SPOT signal as a fraction of Bim BH3's signal on the same receptor and array (Mcl-1, Q07820): 0.22
- SPOT signal as a fraction of Bim BH3's signal on the same receptor and array (Bfl-1, Q16548): 0.12

B17: HEXDC (peptide)
chain: VLELHPGAQRLHIGLDEVYYLGEGEA
- SPOT signal as a fraction of Bim BH3's signal on the same receptor and array (Bcl-xL, Q07817): 0.06
- SPOT signal as a fraction of Bim BH3's signal on the same receptor and array (Mcl-1, Q07820): 0.05
- SPOT signal as a fraction of Bim BH3's signal on the same receptor and array (Bfl-1, Q16548): 0.04

B18: MINA (peptide)
chain: TVATRRLSGFLRTLLDRLEGTKELLS
- SPOT signal as a fraction of Bim BH3's signal on the same receptor and array (Bcl-xL, Q07817): 0.31
- SPOT signal as a fraction of Bim BH3's signal on the same receptor and array (Mcl-1, Q07820): 0.29
- SPOT signal as a fraction of Bim BH3's signal on the same receptor and array (Bfl-1, Q16548): 0.21

B19: PCNXL2 (peptide)
chain: LLDFFMVSILDSKLGDLLHKLQFVLT
- SPOT signal as a fraction of Bim BH3's signal on the same receptor and array (Bcl-xL, Q07817): 0.09
- SPOT signal as a fraction of Bim BH3's signal on the same receptor and array (Mcl-1, Q07820): 0.06
- SPOT signal as a fraction of Bim BH3's signal on the same receptor and array (Bfl-1, Q16548): 0.04

B20: SYNE1 (peptide)
chain: VTLLSEVEKMDSNFGDCVQYKEIVKN
- SPOT signal as a fraction of Bim BH3's signal on the same receptor and array (Bcl-xL, Q07817): 0.09
- SPOT signal as a fraction of Bim BH3's signal on the same receptor and array (Mcl-1, Q07820): 0.05
- SPOT signal as a fraction of Bim BH3's signal on the same receptor and array (Bfl-1, Q16548): 0.05

B21: ATP2A3 (peptide)
chain: KGTAVAICRRLGIFGDTEDVAGKAYT
- SPOT signal as a fraction of Bim BH3's signal on the same receptor and array (Bcl-xL, Q07817): 0.23
- SPOT signal as a fraction of Bim BH3's signal on the same receptor and array (Mcl-1, Q07820): 0.19
- SPOT signal as a fraction of Bim BH3's signal on the same receptor and array (Bfl-1, Q16548): 0.25

B22: USP40 (peptide)
chain: MSLFLRVVFSFTMFLDLFEEEYSTVS
- SPOT signal as a fraction of Bim BH3's signal on the same receptor and array (Bcl-xL, Q07817): 0.06
- SPOT signal as a fraction of Bim BH3's signal on the same receptor and array (Mcl-1, Q07820): 0.06
- SPOT signal as a fraction of Bim BH3's signal on the same receptor and array (Bfl-1, Q16548): 0.04

B23: KIAA0664 (peptide)
chain: AEVMRQRGINMRYLGKVLELVLRSPA
- SPOT signal as a fraction of Bim BH3's signal on the same receptor and array (Bcl-xL, Q07817): 0.94
- SPOT signal as a fraction of Bim BH3's signal on the same receptor and array (Mcl-1, Q07820): 0.69
- SPOT signal as a fraction of Bim BH3's signal on the same receptor and array (Bfl-1, Q16548): 0.52

B24: MKI67 (peptide)
chain: SGLPGLSSVDDNNFGDSINESEGIPL
- SPOT signal as a fraction of Bim BH3's signal on the same receptor and array (Bcl-xL, Q07817): 0.08
- SPOT signal as a fraction of Bim BH3's signal on the same receptor and array (Mcl-1, Q07820): 0.03
- SPOT signal as a fraction of Bim BH3's signal on the same receptor and array (Bfl-1, Q16548): 0.04

B25: UBA6 (peptide)
chain: ADVHGIWSRLDCDFGDEFEVLDTTGE
- SPOT signal as a fraction of Bim BH3's signal on the same receptor and array (Bcl-xL, Q07817): 0.06
- SPOT signal as a fraction of Bim BH3's signal on the same receptor and array (Mcl-1, Q07820): 0.04
- SPOT signal as a fraction of Bim BH3's signal on the same receptor and array (Bfl-1, Q16548): 0.03
